Reference: the supplement of paper PMC7877785
± gives the uncertainty stated by the source.

Test: self-splicing fitness, log relative to wild type (ln ratio); higher = more splicing; Tetrahymena group I intron in knt gene, E. coli kanamycin selection, DiMSum; sequences stand for … in CUCUCU…GGAGGGAAAAGUUAUCAGGCAUGCACCUGGUAGCUAGUCUUUAAACCAAUAGAUUGCAUCGGUUUAAAAGGCAAGACCGUCAAAUUGCGGGAAAGGGGUCAACAGCCGUUCAGUACCAAGUCUCAGGGGAAACUUUGAGAUGGCCUUGCAAAGGGUAUGGUAAUAAGCUGACGGACAUGGUCCUAACCACGCAGCCAAGUCCUAAGUCAACAGAUCUUCUGUUGAUAUGGAUGCAGUUCACAGACUAAAUGUCGGUCGGGGAAGAUGUAUUCUUCUCAUAAGAUAUAGUCGGACCUCUCCUUAAUGGGAGCUAGCGGAUGAAGUGAUGCAACACUGGAGCCGCUGGGAACUAAUUUGUAUGCGAAAGUAUAUUGAUUAGUUUUGGAGUACUCGUGGUCG
In short: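 DiMSum derived fitness as the error-weighted combination of fold changes across replicates, kanamycin versus no kanamycin, normalised to wild type. E. coli BL21(DE3) held the library, which randomised all eight P1ex-region intron nucleotides within the knt kanamycin-resistance gene on pET-22b(+). Six replicate transformations grew overnight at 37°C or 30°C on LB agar with or without 25 μg/mL kanamycin, also containing 100 μg/mL carbenicillin, 50 μM IPTG and 0.2% rhamnose, and pooled colonies were amplicon-sequenced on an Illumina HiSeq 2500.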

| Sequence | self-splicing fitness (ln) (30 °C) | self-splicing fitness (ln) (37 °C) |
| --- | --- | --- |
| AAUGAGCAAUAUUACGUCGA | -3.56 ± 0.21 | -2.84 ± 0.23 |
| AAUGAGCAAUAUUACGUUUG | -4.24 ± 0.2 | -2.33 ± 0.19 |
| AAUUAGCAAUAUUACGAACG | -0.548 ± 0.13 | -0.153 ± 0.19 |
| AAUUAGCAAUAUUACGACAU | -0.0913 ± 0.013 | -0.0165 ± 0.033 |
| AAUUAGCAAUAUUACGACUG | -1.11 ± 0.1 | -0.677 ± 0.11 |
| AAUUAGCAAUAUUACGAGAC | – | -2.39 ± 0.39 |
| AAUUAGCAAUAUUACGAUUA | -0.375 ± 0.15 | -0.559 ± 0.15 |
| AAUUAGCAAUAUUACGCAUG | -1.7 ± 0.15 | 0.109 ± 0.2 |
| AAUUAGCAAUAUUACGCAUU | -2.52 ± 0.17 | -2.69 ± 0.21 |
| AAUUAGCAAUAUUACGCCGC | -2.94 ± 0.36 | -1.66 ± 0.24 |
| AAUUAGCAAUAUUACGCGAG | -1.84 ± 0.12 | -0.918 ± 0.12 |
| AAUUAGCAAUAUUACGCGGA | -1.56 ± 0.16 | -1.3 ± 0.12 |
| AAUUAGCAAUAUUACGCGGG | -2.73 ± 0.15 | -0.941 ± 0.14 |
| AAUUAGCAAUAUUACGGAUC | -0.415 ± 0.11 | 0.186 ± 0.12 |
| AAUUAGCAAUAUUACGGUCU | -0.43 ± 0.085 | 0.202 ± 0.099 |
| AAUUAGCAAUAUUACGUAAU | -1.92 ± 0.12 | -0.218 ± 0.15 |
| AAUUAGCAAUAUUACGUAGU | -2.9 ± 0.16 | -0.462 ± 0.1 |
| AAUUAGCAAUAUUACGUCAC | -3.93 ± 0.36 | -2.41 ± 0.33 |
| AAUUAGCAAUAUUACGUCCU | -0.344 ± 0.11 | 0.561 ± 0.16 |
| AAUUAGCAAUAUUACGUUAG | -4.03 ± 0.28 | -3.13 ± 0.26 |
| AAUUAGCAAUAUUACGUUUU | -1.98 ± 0.13 | -1.21 ± 0.14 |
| ACAAAGCAAUAUUACGAACU | -0.4 ± 0.055 | 0.248 ± 0.075 |
| ACAAAGCAAUAUUACGACGU | 0.0672 ± 0.047 | 0.266 ± 0.06 |
| ACAAAGCAAUAUUACGAGCA | -1.56 ± 0.14 | -0.49 ± 0.12 |
| ACAAAGCAAUAUUACGAUGA | -0.411 ± 0.048 | -0.201 ± 0.058 |
| ACAAAGCAAUAUUACGAUUC | -1.92 ± 0.085 | -0.67 ± 0.1 |

| Sequence | self-splicing fitness (ln) (30 °C) | self-splicing fitness (ln) (37 °C) |
| --- | --- | --- |
| ACAAAGCAAUAUUACGCCAC | -3.01 ± 0.38 | – |
| ACAAAGCAAUAUUACGCCUU | -2.01 ± 0.075 | -0.625 ± 0.087 |
| ACAAAGCAAUAUUACGCGAA | -2.41 ± 0.096 | -1.13 ± 0.092 |
| ACAAAGCAAUAUUACGCGCG | -1.11 ± 0.078 | -0.453 ± 0.099 |
| ACAAAGCAAUAUUACGGAGG | -2.23 ± 0.078 | -2.17 ± 0.11 |
| ACAAAGCAAUAUUACGUAUG | -3.01 ± 0.12 | -2.13 ± 0.15 |
| ACAAAGCAAUAUUACGUCAC | -4.13 ± 0.18 | -2.53 ± 0.16 |
| ACAAAGCAAUAUUACGUCGC | -2.42 ± 0.11 | -2.23 ± 0.16 |
| ACAAAGCAAUAUUACGUCGG | -2.14 ± 0.11 | -0.989 ± 0.12 |
| ACAAAGCAAUAUUACGUCUA | -2.1 ± 0.083 | -0.824 ± 0.086 |
| ACAAAGCAAUAUUACGUGUU | -3.59 ± 0.17 | -2.61 ± 0.16 |
| ACAAAGCAAUAUUACGUUAC | -4.4 ± 0.22 | -2.42 ± 0.22 |
| ACACAGCAAUAUUACGACAC | -1.35 ± 0.081 | 0.0205 ± 0.11 |
| ACACAGCAAUAUUACGACCC | -0.35 ± 0.14 | -0.0588 ± 0.2 |
| ACACAGCAAUAUUACGAGAU | -3.79 ± 0.16 | -0.784 ± 0.11 |
| ACACAGCAAUAUUACGAGGA | -2.42 ± 0.2 | -1.66 ± 0.18 |
| ACACAGCAAUAUUACGAUAG | -2.96 ± 0.074 | -1.62 ± 0.069 |
| ACACAGCAAUAUUACGAUUA | -1.66 ± 0.087 | -0.929 ± 0.07 |
| ACACAGCAAUAUUACGCAAU | -3.32 ± 0.15 | -1.94 ± 0.15 |
| ACACAGCAAUAUUACGCAGA | -2.48 ± 0.16 | -1.75 ± 0.12 |
| ACACAGCAAUAUUACGCCGU | -2.08 ± 0.13 | -1.13 ± 0.18 |
| ACACAGCAAUAUUACGCCUC | -2.92 ± 0.18 | -1.73 ± 0.2 |
| ACACAGCAAUAUUACGCGUA | -1.89 ± 0.078 | -1.2 ± 0.074 |
| ACACAGCAAUAUUACGCGUC | -3.69 ± 0.11 | -3.32 ± 0.15 |
| ACACAGCAAUAUUACGCUAA | -2.03 ± 0.1 | -1.19 ± 0.1 |
| ACACAGCAAUAUUACGCUGG | -1.21 ± 0.063 | -1.33 ± 0.091 |

| Sequence | self-splicing fitness (ln) (30 °C) | self-splicing fitness (ln) (37 °C) |
| --- | --- | --- |
| ACACAGCAAUAUUACGCUGU | -3.38 ± 0.14 | -3 ± 0.21 |
| ACACAGCAAUAUUACGGCAA | -1.49 ± 0.077 | -0.943 ± 0.081 |
| ACACAGCAAUAUUACGGCAG | -1.29 ± 0.067 | -0.371 ± 0.082 |
| ACACAGCAAUAUUACGGCAU | -1.12 ± 0.049 | 0.227 ± 0.062 |
| ACACAGCAAUAUUACGGCCC | -1.48 ± 0.13 | 0.924 ± 0.21 |
| ACACAGCAAUAUUACGGCUU | -0.496 ± 0.04 | -0.0695 ± 0.057 |
| ACACAGCAAUAUUACGGGUU | -2.86 ± 0.077 | -1.85 ± 0.082 |
| ACACAGCAAUAUUACGGUAC | -4.03 ± 0.23 | -2.03 ± 0.14 |
| ACACAGCAAUAUUACGGUGC | -3.91 ± 0.16 | -2.61 ± 0.14 |
| ACACAGCAAUAUUACGGUUG | -1.37 ± 0.066 | -1.31 ± 0.11 |
| ACACAGCAAUAUUACGUACU | -0.335 ± 0.05 | 0.175 ± 0.065 |
| ACACAGCAAUAUUACGUCAU | -2.34 ± 0.072 | -2.33 ± 0.094 |
| ACACAGCAAUAUUACGUCCG | -1.3 ± 0.079 | 0.213 ± 0.11 |
| ACAGAGCAAUAUUACGAAUC | -2.92 ± 0.36 | – |
| ACAGAGCAAUAUUACGAAUG | -3.82 ± 0.16 | -2.51 ± 0.19 |
| ACAGAGCAAUAUUACGACUU | -2.44 ± 0.16 | -1.52 ± 0.15 |
| ACAGAGCAAUAUUACGAGCU | -3.43 ± 0.18 | -2.22 ± 0.22 |
| ACAGAGCAAUAUUACGCAAU | -3.59 ± 0.32 | -2.42 ± 0.32 |
| ACAGAGCAAUAUUACGCACU | -3.25 ± 0.17 | -1.33 ± 0.14 |
| ACAGAGCAAUAUUACGCAUU | -4.18 ± 0.27 | -2.99 ± 0.31 |
| ACAGAGCAAUAUUACGCCAG | -2.37 ± 0.35 | -1.71 ± 0.49 |
| ACAGAGCAAUAUUACGCCGC | -3.09 ± 0.48 | -1.07 ± 0.36 |
| ACAGAGCAAUAUUACGCGUU | – | -1.16 ± 0.29 |
| ACAGAGCAAUAUUACGGAGA | -3.21 ± 0.26 | -2.6 ± 0.29 |
